Data on one substance can be found in patent US20200270339A1.

Where “and” joins values, the source holds several entries; their conditions need not be identical. Equal entries are not always repeated.

Experiment [1] concerns the target human IL-15 complexed with the IL-15 Receptor-alpha (human) (UniProt P40933). The experiment is described as follows: SPR. In general terms: Surface plasmon resonance follows binding to a sensor surface in real time, without labels.
For experiment [2] the target is unchanged. The experiment is described as follows: SPR, antibody captured on Protein A chip, IL-15 complex as analyte.
Experiment [3] has the same target. The experiment in a line: SPR, antibody captured on Protein A chip.
For experiment [4] the target is unchanged. The experiment in a line: cell-based or functional assay.

Chain of human IL-15 complexed with the IL-15 Receptor-alpha (human) (P40933 49-162 limits assumed, chain 1 of 2): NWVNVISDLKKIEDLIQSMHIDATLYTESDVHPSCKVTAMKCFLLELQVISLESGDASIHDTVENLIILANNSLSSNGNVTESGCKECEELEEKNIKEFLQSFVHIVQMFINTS
Chain of human IL-15 complexed with the IL-15 Receptor-alpha (human) (chain, as listed by the source limits assumed, chain 2 of 2): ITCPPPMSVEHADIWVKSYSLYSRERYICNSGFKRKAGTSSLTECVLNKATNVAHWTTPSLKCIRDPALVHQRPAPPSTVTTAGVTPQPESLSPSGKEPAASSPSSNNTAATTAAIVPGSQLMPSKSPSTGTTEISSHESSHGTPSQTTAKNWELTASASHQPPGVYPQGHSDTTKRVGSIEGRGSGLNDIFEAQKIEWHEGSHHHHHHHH
Chain of AMG714 (antibody) (VH): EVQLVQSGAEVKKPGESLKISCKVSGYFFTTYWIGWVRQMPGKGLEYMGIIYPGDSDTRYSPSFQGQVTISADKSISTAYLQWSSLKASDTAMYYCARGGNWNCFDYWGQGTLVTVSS
Chain of AMG714 (antibody) (VL): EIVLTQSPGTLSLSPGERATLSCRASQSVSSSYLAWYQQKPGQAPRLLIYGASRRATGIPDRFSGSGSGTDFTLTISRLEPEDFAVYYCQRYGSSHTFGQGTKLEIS

By Kd is commonly meant the constant that tells how readily two partners part at equilibrium. One may read the koff as a measure of how fast the partners let go of each other. Low readings indicate a long-lived complex, high ones a short-lived complex. Usually kon stands for the second-order rate constant of association. The low end stands for slow association, the high end for fast association. On to AMG714 (antibody), for which, in experiment [1], the Kd was 1.86 nM and 1.82 nM; the koff is 0.000398 s⁻¹ and 0.00038 s⁻¹; the kon was 209000 M⁻¹ s⁻¹ and 214000 M⁻¹ s⁻¹. Besides, in experiment [2], the Kd is 1.84 nM. The fold faster dissociation rate than from Antibody 70 variants in experiment [3] worked out at 10 fold. Besides, in experiment [4], the Max IC50 (pM), NK-92 proliferation assay worked out at 2650 pM; the Mean IC50 (pM), NK-92 proliferation assay was 1300 pM; the Min IC50 (pM), NK-92 proliferation assay came to 378 pM.
